Sequences and labels used below:
B1: CPEB3 Ribozyme (parent)
chain: UAACAGGGGGCCACAGCAGAAGCGUUCACGUCGCAGCCCCUGUCAGAUUCUGGUGAAUCUGCGAAUUCUGCUGUAUAUCUC

Among the data in the RNAGym collection of RNA variant scans (doi:10.1093/nar/gkz1192) are self-cleavage values, retold here.

The variants in this data set derive from B1. The experiment in a line: self-cleavage, relative activity (ratio to wild type); higher = more cleavage; in vitro, sequencing. In outline:
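After error-prone PCR and barcoding, CPEB3 ribozyme mutant libraries were transcribed with T7 RNA polymerase at 37°C for 5 hours, then given 15 min with DNase I before an EDTA stop, and they cleaved during both steps. Reverse transcription with template switching preceded Illumina sequencing. Relative activity divides a variant's cleaved/total read fraction by the unmutated ribozyme's. At least 5 reads were required per variant, and three batches were averaged.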
Consider UAACAGGGGGCCGCAGCAGAAGCGUUCACGUCGCAGCCCCUGUCGGAUUCUGGUGAAUCUGCGAAUUCUGCUGUAUAUCUC [A13G A45G], for which the self-cleavage amounted to 0.67.

On to UAACAGGGGGCCGCAGCAGAAGCGUUCACGUCGCAGCCCGUGUCAGAUUCUGGUGAAUCUGCGAAUUCUGCUGUAUAUCUC [A13G C40G], for which the self-cleavage stood at 0.23.

Take UAACAGGGGGCCGCAGCAGAAGCGUUCACGUCGCAGCCCUUGUCAGAUUCUGGUGAAUCUGCGAAUUCUGCUGUAUAUCUC [A13G C40U]: the self-cleavage is 0.76.

As for UAACAGGGGGCCGCAGCAGAAGCGUUCACGUCGCAGCCCAUGUCAGAUUCUGGUGAAUCUGCGAAUUCUGCUGUAUAUCUC [A13G C40A], the self-cleavage amounted to 0.21.

For UAACAGGGGGCCGCAGCAGAAGCGUUCACGUCGGAGCCCCUGUCAGAUUCUGGUGAAUCUGCGAAUUCUGCUGUAUAUCUC [A13G C34G], the self-cleavage stood at 0.17.

UAACAGGGGGCCGCAGCAGAAGCGUUCACGUCGUAGCCCCUGUCAGAUUCUGGUGAAUCUGCGAAUUCUGCUGUAUAUCUC [A13G C34U]: the self-cleavage came to 0.32.

Turning to UAACAGGGGGCCGCAGCAGAAGCGUUUACGUCGCAGCCCCUGUCAGAUUCUGGUGAAUCUGCGAAUUCUGCUGUAUAUCUC [A13G C27U], the self-cleavage turned out to be 0.26.

Regarding UAACAGGGGGCCGCAGCAGAAGCGUUCACGUCGCAGCCCCUGUCAGAUUGUGGUGAAUCUGCGAAUUCUGCUGUAUAUCUC [A13G C50G], the self-cleavage was found to be 0.81.

Regarding UAACAGGGGGCCGCAGCAGAAGCGUUCACGUCGCAGCCCCUGUCAGAUUAUGGUGAAUCUGCGAAUUCUGCUGUAUAUCUC [A13G C50A], the self-cleavage was 0.76.

As for UAACAGGGGGCCGCAGCAGAAGCGUUCACGUCGCAGCCCCUGUCAGAUUCUGGUGUAUCUGCGAAUUCUGCUGUAUAUCUC [A13G A56U], the self-cleavage was found to be 0.42.

On to UAACAGGGGGCCGCAGCAGAAGCGUUCACGUCGCAGCCCCUGUCAGAUUCUGGUGGAUCUGCGAAUUCUGCUGUAUAUCUC [A13G A56G], for which the self-cleavage came to 0.73.

As to UAACAGGGGGCCGCAGCAGAAGGGUUCACGUCGCAGCCCCUGUCAGAUUCUGGUGAAUCUGCGAAUUCUGCUGUAUAUCUC [A13G C23G], the self-cleavage amounted to 0.46.

In the case of UAACAGGGGGCCGCAGCAGAAGUGUUCACGUCGCAGCCCCUGUCAGAUUCUGGUGAAUCUGCGAAUUCUGCUGUAUAUCUC [A13G C23U], the self-cleavage came out at 0.36.

Consider UAACAGGGGGCCGCAGCAGAAGCGUUCACGUCGCAGCCCCUGUCAGAUUCUGGUGAUUCUGCGAAUUCUGCUGUAUAUCUC [A13G A57U], for which the self-cleavage stood at 0.45.

On to UAACAGGGGGCCGCAGCAGAAGCGUUCACGUCGCAGCCCCUGUCAGAUUCUGGUGAGUCUGCGAAUUCUGCUGUAUAUCUC [A13G A57G], for which the self-cleavage stood at 0.72.

For UAACAGGGGGCCGCAGCAGAAGCGUUCACGUCGCAGCCCCUGUCAGAUUCUGGUGACUCUGCGAAUUCUGCUGUAUAUCUC [A13G A57C], the self-cleavage was determined as 0.33.

Consider UAACAGGGGGCCGCAGCAGAAGCGUUCGCGUCGCAGCCCCUGUCAGAUUCUGGUGAAUCUGCGAAUUCUGCUGUAUAUCUC [A13G A28G], for which the self-cleavage was 0.39.

On to UAACAGGGGGCCGCAGCAGAAGCGUUCUCGUCGCAGCCCCUGUCAGAUUCUGGUGAAUCUGCGAAUUCUGCUGUAUAUCUC [A13G A28U], for which the self-cleavage amounted to 0.54.

Take UAACAGGGGGCCGCAGCAGAAGCGUUCCCGUCGCAGCCCCUGUCAGAUUCUGGUGAAUCUGCGAAUUCUGCUGUAUAUCUC [A13G A28C]: the self-cleavage turned out to be 0.43.

With UAACAGGGGGCCGCAGCGGAAGCGUUCACGUCGCAGCCCCUGUCAGAUUCUGGUGAAUCUGCGAAUUCUGCUGUAUAUCUC [A13G A18G], the self-cleavage amounted to 0.39.

With UAACAGGGGGCCGCAGCUGAAGCGUUCACGUCGCAGCCCCUGUCAGAUUCUGGUGAAUCUGCGAAUUCUGCUGUAUAUCUC [A13G A18U], the self-cleavage was 0.27.

Turning to UAACAGGGGGCCGCAGCAGAAGCGUUCACGUCGCCGCCCCUGUCAGAUUCUGGUGAAUCUGCGAAUUCUGCUGUAUAUCUC [A13G A35C], the self-cleavage was found to be 0.56.

For UAACAGGGGGCCGCAGCAGAAGCGUUCACGUCGCUGCCCCUGUCAGAUUCUGGUGAAUCUGCGAAUUCUGCUGUAUAUCUC [A13G A35U], the self-cleavage is 0.48.

With UAACAGGGGGCCGCAGCAGAAGCGUUCACGUCGCGGCCCCUGUCAGAUUCUGGUGAAUCUGCGAAUUCUGCUGUAUAUCUC [A13G A35G], the self-cleavage turned out to be 0.92.

With UAACAGGGGGCCGCAGCAGAAGCGUUCACGUCGCAGCCCCUGUCAGUUUCUGGUGAAUCUGCGAAUUCUGCUGUAUAUCUC [A13G A47U], the self-cleavage is 0.38.

UAACAGGGGGCCGCAGCAGAAGCGUUCACGUCGCAGCCCCUGUCAGGUUCUGGUGAAUCUGCGAAUUCUGCUGUAUAUCUC [A13G A47G]: the self-cleavage amounted to 0.86.

Take UAACAGGGGGCCGCAGCAGAAGCGUUCACGUCGCAGCCCCUGUCAGCUUCUGGUGAAUCUGCGAAUUCUGCUGUAUAUCUC [A13G A47C]: the self-cleavage was 0.57.

As for UAACAGGGGGCCGCAGCAGAAGCGUUCACGUCGCAGCCACUGUCAGAUUCUGGUGAAUCUGCGAAUUCUGCUGUAUAUCUC [A13G C39A], the self-cleavage turned out to be 0.28.

On to UAACAGGGGGCCGCAGCAGAAGCGUUCACGUCGCAGCCUCUGUCAGAUUCUGGUGAAUCUGCGAAUUCUGCUGUAUAUCUC [A13G C39U], for which the self-cleavage came to 1.

Consider UAACAGGGGGCCGCAGCAGAAGCGUUCACGUCGCAGCCGCUGUCAGAUUCUGGUGAAUCUGCGAAUUCUGCUGUAUAUCUC [A13G C39G], for which the self-cleavage is 0.27.

On to UAACAGGGGGCCGCAGCAGAAGCGUUCACGUCGCAGACCCUGUCAGAUUCUGGUGAAUCUGCGAAUUCUGCUGUAUAUCUC [A13G C37A], for which the self-cleavage is 0.18.

Turning to UAACAGGGGGCCGCAGCAGAAGCGUUCACGUCGCAGUCCCUGUCAGAUUCUGGUGAAUCUGCGAAUUCUGCUGUAUAUCUC [A13G C37U], the self-cleavage was determined as 0.53.

As to UAACAGGGGGCCGUAGCAGAAGCGUUCACGUCGCAGCCCCUGUCAGAUUCUGGUGAAUCUGCGAAUUCUGCUGUAUAUCUC [A13G C14U], the self-cleavage is 0.78.

As to UAACAGGGGGCCGAAGCAGAAGCGUUCACGUCGCAGCCCCUGUCAGAUUCUGGUGAAUCUGCGAAUUCUGCUGUAUAUCUC [A13G C14A], the self-cleavage came out at 0.88.
